Read-outs that look alike come from different tables or passages of the source.
T1: Cynomolgus CD3 epsilon Protein, His Tag (Acrobiosystems, Cat #CDE-05226) (cynomolgus (Macaca fascicularis), UniProt Q95LI5 22-117)
T1 construct: also called monkey CD3e; not shown: His tag
T1 sequence: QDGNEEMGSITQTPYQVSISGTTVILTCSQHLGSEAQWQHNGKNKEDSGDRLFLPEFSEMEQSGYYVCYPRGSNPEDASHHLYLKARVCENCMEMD

T2: Histidine-tagged rCD3e protein (rhesus macaque, Macaca mulatta) (rhesus macaque (Macaca mulatta), UniProt Q95LI5 22-117 (cynomolgus entry), limits assumed)
T2 construct: also called rCD3e-His; rmCD3e; not shown: His tag
T2 chain: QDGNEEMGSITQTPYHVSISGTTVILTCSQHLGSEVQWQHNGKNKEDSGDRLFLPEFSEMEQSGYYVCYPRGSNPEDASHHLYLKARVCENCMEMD


Key:
[1] = target: T3, human CD3e (T-cell surface glycoprotein CD3 epsilon chain) (human, UniProt P07766 23-207); experiment: cell-based or functional assay
[2] = target: T4, Histidine-tagged human CD3e protein (human, UniProt P07766 23-126); experiment: SPR, Biacore T200, antibody on Protein A chip, hCD3e-His injected
T4 construct: also called hCD3e-His; not shown: His tag
Procedure: (§1) The binding affinity of the anti-hCD3e antibodies were measured using surface plasmon resonance (SPR) using Biacore (Biacore, INC, Piscataway N.J.) T200 biosensor equipped with pre-immobilized Protein A sensor chips (Protein A (Lot:10260138)-5).
Anti-hCD3e antibodies were collected from CHO-S cells. The antibodies (1:20) were injected into Biacore T200 biosensor at 10 μL/min for 35 seconds to achieve to a desired protein density. Histidine-tagged human CD3e proteins (hCD3e-His) with different concentrations (100 nM 0.390625 nM) were then injected to the system at 30 μL/min for 150 seconds. Dissociation was monitored for 600 seconds. The chip was regenerated after the last injection of each titration with Glycine (pH 2.0, 30 μL/min for 5 seconds).

[3] = target: T4, Histidine-tagged human CD3e protein; experiment: SPR (Biacore), human CD3e; same numbers as Table 7
[4] = target: T1, Cynomolgus CD3 epsilon Protein, His Tag …; experiment: SPR (Biacore), cynomolgus CD3e His tag
Procedure: The binding affinity of the anti-hCD3e antibodies with monkey CD3e (Cynomolgus CD3 epsilon Protein (SEQ ID NO: 39 AA Gln 22-Asp 117), His Tag, Acrobiosystems, Cat #CDE-05226) were also measured using surface plasmon resonance (SPR) using Biacore (Biacore, INC, Piscataway N.J.) by the methods as described in the examples.

[5] = target: T2, Histidine-tagged rCD3e protein (rhesus …); experiment: SPR, Biacore T200, antibody on Protein A chip, rCD3e-His injected
Procedure: as §1
Experiments were also performed to test the binding affinities with rCD3e (rhesus macaque, or Macaca mulatta). Anti-hCD3e antibodies (1:20) were injected into Biacore T200 biosensor at 10 μL/min for 30 seconds to achieve to a desired protein density. Histidine-tagged rCD3e proteins (rCD3e-His) with different concentrations (100 nM 0.390625 nM) were then injected to the system at 30 μL/min for 150 seconds. Dissociation was monitored for 450 seconds. The chip was regenerated after the last injection of each titration with Glycine (pH 2.0, 30 μL/min for 12 seconds).

[6] = target: T4, Histidine-tagged human CD3e protein; experiment: SPR (Biacore), human CD3e; same numbers as Table 7; remark: listed apart in the source
[7] = target: T3, human CD3e (T-cell surface glycoprotein …); experiment: cell-based or functional assay; remark: listed apart in the source
[8] = target: T3, human CD3e (T-cell surface glycoprotein …); experiment: cell-based or functional assay; remark: listed apart in the source

Binder | EC50, luciferase of Jurkat-Luc-NFAT cells with CHO-FcγRIIB cells [1] [µg/mL] | Kd [2] [nM] | koff [2] [s⁻¹] | kon [2] [M⁻¹ s⁻¹] | Kd [4] [nM] | koff [4] [s⁻¹] | kon [4] [M⁻¹ s⁻¹] | Kd [5] [nM] | koff [5] [s⁻¹] | kon [5] [M⁻¹ s⁻¹] | also measured
30-1B1 (antibody, V domains shown) VH: QVQLQQPGSELVRPGASVKLSCKASGYTFTSYWMHWVKQRHGQGLEWIGNIYPDSGTTNYGEKFKTKGTLTVDTSSSTAYMHLSSLTSEDSAVYYCTRDTSGQYYFDYWGQGTTLTVSS VL: DIVMSQSPSSLAVSAGEKVTMSCKSSQSLLNSRTRKNYLAWYQHKPGQSPKLLIYWASTRESGVPDRFTGSGSGTDFTLTISSVQAEDLAVYYCVQSFSLRAFGGGTKLEIK | 2.98 |  |  |  |  |  |  |  |  |  | 
C3E-30-1B1-mHvKv-IgG1-LALA (antibody, V domains shown, Chimeric) VH: QVQLQQPGSELVRPGASVKLSCKASGYTFTSYWMHWVKQRHGQGLEWIGNIYPDSGTTNYGEKFKTKGTLTVDTSSSTAYMHLSSLTSEDSAVYYCTRDTSGQYYFDYWGQGTTLTVSS VL: DIVMSQSPSSLAVSAGEKVTMSCKSSQSLLNSRTRKNYLAWYQHKPGQSPKLLIYWASTRESGVPDRFTGSGSGTDFTLTISSVQAEDLAVYYCVQSFSLRAFGGGTKLEIK |  | 0.988 | 0.000509 | 516000 | 4.54 | 0.00049 | 108000 | 0.752 | 0.00039 | 518000 | Kd [3]: 0.988 nM; koff [3]: 0.000509 s⁻¹; kon [3]: 516000 M⁻¹ s⁻¹
25-10A4 (antibody, V domains shown) VH: QVQLQQSGPELVKPGASVRISCKASGYTFTSYYIHWVKQRPGQGLEFIGWIYPGNVNAKYNEKFKGKATLTTDKSSTTAYMQLSSLTSEDSAVYFCAIKGGNYDWGQGTLVTVSA VL: not shown | 0.421 |  |  |  |  |  |  |  |  |  | 
C3E-25-10A4-mHvKv-IgG1-LALA (antibody, V domains shown, Chimeric) VH: QVQLQQSGPELVKPGASVRISCKASGYTFTSYYIHWVKQRPGQGLEFIGWIYPGNVNAKYNEKFKGKATLTTDKSSTTAYMQLSSLTSEDSAVYFCAIKGGNYDWGQGTLVTVSA VL: not shown |  | 5.37 | 0.000384 | 71500 | 9.05 | 0.000453 | 50000 | 2.05 | 0.000251 | 123000 | Kd [6]: 5.37 nM; koff [6]: 0.000384 s⁻¹; kon [6]: 71500 M⁻¹ s⁻¹
Teplizumab (antibody, V domains shown) VH: QVQLVQSGGGVVQPGRSLRLSCKASGYTFTRYTMHWVRQAPGKGLEWIGYINPSRGYTNYNQKVKDRFTISRDNSKNTAFLQMDSLRPEDTGVYFCARYYDDHYCLDYWGQGTPVTVSS VL: DIQMTQSPSSLSASVGDRVTITCSASSSVSYMNWYQQTPGKAPKRWIYDTSKLASGVPSRFSGSGSGTDYTFTISSLQPEDIATYYCQQWSSNPFTFGQGTKLQITR |  |  |  |  |  |  |  |  |  |  | EC50, luciferase of Jurkat-Luc-NFAT cells; purified antibody [7]: 0.449 µg/mL; EC50, luciferase of Jurkat-Luc-NFAT cells; purified antibody [8]: 0.149 µg/mL

Reference: patent publication US20210269525A1 (BIOCYTOGEN PHARMACEUTICALS BEIJING, published 2021)
